These results are taken from article PMC6938246.

In test [1] the target is filamentous actin (F-actin) (rabbit) (UniProt P68135). In words: co-sedimentation.
For test [2] the target is unchanged. In words: single-molecule TIRF microscopy.

Sequence of utrophin actin-binding domain (CH1–CH2), wild type (P46939 31-256): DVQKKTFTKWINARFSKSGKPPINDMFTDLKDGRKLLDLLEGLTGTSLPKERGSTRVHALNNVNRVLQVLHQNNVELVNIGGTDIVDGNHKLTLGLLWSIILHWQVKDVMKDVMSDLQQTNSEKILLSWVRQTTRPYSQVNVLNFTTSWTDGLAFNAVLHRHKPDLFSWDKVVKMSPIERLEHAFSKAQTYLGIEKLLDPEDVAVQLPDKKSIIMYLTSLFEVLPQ
Sequence of plectin actin-binding domain (CH1–CH2) (domain or fragment) (Q15149 60-293): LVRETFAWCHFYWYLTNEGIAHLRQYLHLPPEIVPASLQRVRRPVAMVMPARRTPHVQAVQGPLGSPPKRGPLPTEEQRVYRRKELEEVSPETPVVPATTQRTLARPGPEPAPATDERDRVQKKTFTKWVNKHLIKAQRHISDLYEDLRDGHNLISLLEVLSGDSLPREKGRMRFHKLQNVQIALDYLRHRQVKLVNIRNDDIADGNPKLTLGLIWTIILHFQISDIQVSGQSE
Sequence of utrophin actin-binding domain with residues 1–27 truncated (Δ-n-term) (P46939 28-3433, stated change not applied): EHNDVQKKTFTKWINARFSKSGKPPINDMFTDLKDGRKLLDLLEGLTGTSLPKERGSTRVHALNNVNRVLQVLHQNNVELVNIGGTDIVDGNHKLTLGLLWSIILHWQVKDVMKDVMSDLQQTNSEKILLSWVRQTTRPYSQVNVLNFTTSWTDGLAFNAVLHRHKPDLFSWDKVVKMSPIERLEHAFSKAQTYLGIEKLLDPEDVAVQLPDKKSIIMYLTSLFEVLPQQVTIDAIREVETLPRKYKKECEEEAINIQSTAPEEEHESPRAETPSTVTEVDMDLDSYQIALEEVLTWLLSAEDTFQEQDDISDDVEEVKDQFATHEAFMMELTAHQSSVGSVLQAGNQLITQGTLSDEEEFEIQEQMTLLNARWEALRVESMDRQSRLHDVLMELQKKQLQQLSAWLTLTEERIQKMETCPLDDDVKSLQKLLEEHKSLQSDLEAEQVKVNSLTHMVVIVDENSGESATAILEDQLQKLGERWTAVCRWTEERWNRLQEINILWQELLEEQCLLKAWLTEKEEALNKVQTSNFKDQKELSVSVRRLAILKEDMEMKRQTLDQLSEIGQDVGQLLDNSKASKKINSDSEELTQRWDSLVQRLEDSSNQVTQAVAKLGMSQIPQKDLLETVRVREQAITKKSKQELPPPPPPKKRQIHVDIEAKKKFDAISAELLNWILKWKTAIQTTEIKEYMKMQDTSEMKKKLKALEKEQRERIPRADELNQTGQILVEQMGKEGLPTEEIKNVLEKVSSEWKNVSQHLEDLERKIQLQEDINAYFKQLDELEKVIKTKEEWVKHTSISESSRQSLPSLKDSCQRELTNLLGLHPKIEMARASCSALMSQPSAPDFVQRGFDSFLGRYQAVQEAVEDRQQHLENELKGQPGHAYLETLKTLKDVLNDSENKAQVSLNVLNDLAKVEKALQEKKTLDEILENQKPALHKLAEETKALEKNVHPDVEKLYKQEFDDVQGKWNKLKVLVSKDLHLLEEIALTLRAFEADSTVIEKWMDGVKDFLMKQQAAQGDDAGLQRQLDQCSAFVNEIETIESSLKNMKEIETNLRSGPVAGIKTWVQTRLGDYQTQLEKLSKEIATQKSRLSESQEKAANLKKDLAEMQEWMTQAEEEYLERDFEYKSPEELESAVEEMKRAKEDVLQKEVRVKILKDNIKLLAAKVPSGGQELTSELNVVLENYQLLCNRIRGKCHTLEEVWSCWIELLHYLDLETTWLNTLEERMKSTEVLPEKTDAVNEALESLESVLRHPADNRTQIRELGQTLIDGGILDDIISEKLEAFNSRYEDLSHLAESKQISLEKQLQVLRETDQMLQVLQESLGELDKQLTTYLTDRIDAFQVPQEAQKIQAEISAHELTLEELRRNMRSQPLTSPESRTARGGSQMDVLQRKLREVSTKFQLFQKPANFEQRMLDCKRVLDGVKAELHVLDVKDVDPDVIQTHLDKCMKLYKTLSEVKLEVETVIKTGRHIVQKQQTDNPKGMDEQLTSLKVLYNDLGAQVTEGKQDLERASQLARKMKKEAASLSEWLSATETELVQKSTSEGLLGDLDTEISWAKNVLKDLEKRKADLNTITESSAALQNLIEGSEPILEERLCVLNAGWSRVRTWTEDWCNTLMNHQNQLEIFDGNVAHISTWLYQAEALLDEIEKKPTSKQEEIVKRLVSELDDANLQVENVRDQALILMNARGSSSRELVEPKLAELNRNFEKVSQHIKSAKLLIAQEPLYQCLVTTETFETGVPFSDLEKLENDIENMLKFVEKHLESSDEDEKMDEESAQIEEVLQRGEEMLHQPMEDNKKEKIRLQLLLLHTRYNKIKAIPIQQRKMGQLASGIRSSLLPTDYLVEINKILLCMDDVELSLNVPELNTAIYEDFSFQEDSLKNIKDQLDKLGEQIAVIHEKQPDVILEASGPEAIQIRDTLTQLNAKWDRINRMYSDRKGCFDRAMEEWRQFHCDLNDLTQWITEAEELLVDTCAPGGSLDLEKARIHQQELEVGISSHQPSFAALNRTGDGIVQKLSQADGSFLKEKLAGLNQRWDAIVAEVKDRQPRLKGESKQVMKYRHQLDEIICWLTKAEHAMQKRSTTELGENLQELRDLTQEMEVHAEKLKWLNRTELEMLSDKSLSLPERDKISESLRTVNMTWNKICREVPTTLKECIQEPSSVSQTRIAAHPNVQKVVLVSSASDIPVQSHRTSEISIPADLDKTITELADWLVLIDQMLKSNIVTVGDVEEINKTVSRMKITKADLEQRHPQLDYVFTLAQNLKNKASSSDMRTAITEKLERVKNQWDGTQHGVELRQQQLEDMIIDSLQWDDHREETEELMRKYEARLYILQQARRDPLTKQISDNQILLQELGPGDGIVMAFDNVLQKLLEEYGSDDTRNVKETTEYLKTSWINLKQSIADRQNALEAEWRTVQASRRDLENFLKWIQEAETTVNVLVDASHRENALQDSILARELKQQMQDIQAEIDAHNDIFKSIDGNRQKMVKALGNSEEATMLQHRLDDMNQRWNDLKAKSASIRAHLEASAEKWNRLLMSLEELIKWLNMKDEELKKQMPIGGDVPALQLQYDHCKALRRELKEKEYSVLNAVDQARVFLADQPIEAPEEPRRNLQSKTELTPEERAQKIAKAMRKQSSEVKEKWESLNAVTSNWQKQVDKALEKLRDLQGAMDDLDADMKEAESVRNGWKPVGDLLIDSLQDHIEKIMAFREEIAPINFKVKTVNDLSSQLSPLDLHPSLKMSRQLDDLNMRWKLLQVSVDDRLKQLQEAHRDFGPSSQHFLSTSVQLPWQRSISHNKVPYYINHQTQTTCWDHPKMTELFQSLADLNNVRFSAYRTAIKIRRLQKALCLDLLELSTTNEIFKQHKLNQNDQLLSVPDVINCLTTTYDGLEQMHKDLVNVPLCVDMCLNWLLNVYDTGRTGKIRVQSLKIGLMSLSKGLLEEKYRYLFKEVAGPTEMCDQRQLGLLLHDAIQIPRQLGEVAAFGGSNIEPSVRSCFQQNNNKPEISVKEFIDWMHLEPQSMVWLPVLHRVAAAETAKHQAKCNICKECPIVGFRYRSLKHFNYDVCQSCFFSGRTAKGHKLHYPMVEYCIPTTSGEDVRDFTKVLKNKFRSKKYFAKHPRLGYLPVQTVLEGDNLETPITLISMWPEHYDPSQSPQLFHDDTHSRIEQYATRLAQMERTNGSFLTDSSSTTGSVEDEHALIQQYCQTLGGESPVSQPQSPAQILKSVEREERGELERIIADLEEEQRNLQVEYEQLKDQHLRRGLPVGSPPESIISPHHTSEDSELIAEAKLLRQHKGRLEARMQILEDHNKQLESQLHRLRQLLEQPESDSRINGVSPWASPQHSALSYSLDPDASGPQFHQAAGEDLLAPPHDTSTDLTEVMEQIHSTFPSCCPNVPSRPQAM

For the substance “utrophin actin-binding domain (CH1–CH2), wild type (from UniProt P46939 31-256) (domain or fragment)”, the Kd (in general, a measure of binding affinity in units of concentration) in test [1] was found to be 13.8 µM. The mean dwell time of binding events in test [2] was found to be 0.96 s.
“utrophin actin-binding domain S158C conjugated with maleimide-750Da PEG (from UniProt P46939 31-256) (domain or fragment)”: the Kd in test [1] amounted to 53.8 µM.
“utrophin actin-binding domain S158C, unconjugated (from UniProt P46939 31-256) (domain or fragment)”: in test [1], the Kd turned out to be 12.5 µM.
“plectin actin-binding domain (CH1–CH2) (domain or fragment)” came in with a Kd in test [1] of 120 µM.
Consider “utrophin actin-binding domain with residues 1–27 truncated (Δ-n-term) (from UniProt P46939 28-3433) (domain or fragment)”, for which the Kd in test [1] was 31.4 µM.
“utrophin actin-binding domain Q33A T36A (from UniProt P46939 31-256) (domain or fragment)” registered a Kd in test [1] of 0.4 µM. The substance further came in with a mean dwell time of binding events in test [2] of 8.49 s.
For “plectin actin-binding domain K278E (domain or fragment)”, the Kd in test [1] amounted to 45.1 µM.
